This passage reports binding result and Kd results from patent US20030064410A1 (ECOLE POLYTECHNIQUE FEDERALE DE LAUSANNE EPFL, published 2003).

Square brackets hold non-standard residues; d marks the D form. Ends that are not written are not given here. sY = N[C@@H](Cc1ccc(OS(=O)(=O)O)cc1)C(=O)O

The Kd is the free concentration of one partner at which half of the binding sites on the other are occupied at equilibrium, for simple one-to-one binding.

The target of assay [1] is T1, VEGF165 (vascular endothelial cell growth factor, 165 isoform), recombinant from E. coli, refolded dimer (human, UniProt P15692-4 27-191, Example 1: about 4 AMCA coumarins per VEGF165, sites not given; Example 3 screen: biotinylated, sites not given).
T1 construct: Tags from the pRSET vector are not mentioned; also called coumerin-VEGF; coumarin-labeled VEGF165
T1 sequence (P15692 other isoform, or with tags, fused parts or gaps limits assumed): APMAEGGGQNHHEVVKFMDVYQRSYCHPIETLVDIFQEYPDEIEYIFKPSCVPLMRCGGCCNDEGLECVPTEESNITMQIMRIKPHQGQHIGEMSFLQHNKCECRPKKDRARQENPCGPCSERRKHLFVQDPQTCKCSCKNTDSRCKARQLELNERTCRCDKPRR
Briefly: on-bead colorimetric screen, about 0.25 nM biotinylated VEGF165 with 1 equivalent of heparin. As for the experimental part:
The resin was rinsed with TBS (5×) and 200 μL of 5-bromo-4-chloro-3-indoylphosphate p-toluidine salt/nitro blue tetrazolium chloride (BCIP/NBT) reagent was added to develop a blue/black color where the streptavidin alkaline phosphatase was present. Nonspecific adsorption of the streptavidin alkaline phosphatase was detected as blue/black stained beads. After 15 minutes, the resin was rinsed with TBS (5×) prior to adding 100 μL of about 0.25 nM of biotinylated VEGF₁₆₅ in the presence or absence of 1 or 10 equivalents of heparin sodium salt (isolated from porcine intestinal mucosa) in 400 μL of blocking buffer. The mixture was shaken overnight, the solution removed, the resin washed with TBS (6×), and 1 mL streptavidin alkaline phosphatase (diluted 1:1000 from a 1 mg/mL solution) was added. The streptavidin alkaline phosphatase preferentially attached to beads having VEGF since the VEGF was attached to biotin, which is a ligand for the streptavidin on the streptavidin alkaline phosphatase. After 2 h the solution was removed and rinsed with TBS (5×) and Fast Red substrate (PIERCE) was added to make the presence of the alkaline phosphatase visible by making a red color. Positive beads were those that were stained red. The red beads were selected, and subjected to 8M guanidine-HCl, pH=1.4 for 20 minutes prior to rinsing with H20 (3×) and DMF until residual color was removed. […]

In assay [2] the target is T1, VEGF165 (vascular endothelial cell …). As to the kind of experiment: SPR. On the technique in general: In SPR one partner is held on a chip, and binding of the other changes the refractive index at the surface.

As for [sY][sY]GG[sY]D[sY]GGGG-{PEGA resin} (not fully specified (N-terminus); printed as Y(SO3)Y(SO3)GGY(SO3)DY(SO3)) [Y(SO3)Y(SO3)GGY(SO3)DY(SO3)-Gly-Gly-Gly-Gly-PEGA bead], the binding result in assay [1] is listed as “binds”.

As to F[sY]GG[sY]D[sY]GGGG-{PEGA resin} (not fully specified (N-terminus)) [FY(SO3)GGY(SO3)DY(SO3)-Gly-Gly-Gly-Gly-PEGA bead], in assay [1], the binding result was “binds”.

B1: SY(SO3)DY(SO3)G (peptide)
peptide: S[sY]D[sY]G
modifications: not fully specified (C-terminus); printed as SY(SO3)DY(SO3)G
notes: Independently synthesized free peptide used in SPR
B1: in assay [2], the Kd stood at 3.1 µM.

B2: Y(SO3)Y(SO3)GGY(SO3)DY(SO3)G (peptide)
peptide: [sY][sY]GG[sY]D[sY]G
modifications: not fully specified (N-terminus, C-terminus); printed as Y(SO3)Y(SO3)GGY(SO3)DY(SO3)G
notes: as for B1
Regarding B2, in assay [2], the Kd was determined as 0.14 µM.
